Results: article PMC4605309
Like-named read-outs stand apart in the source and are kept apart here.

B1: Id2 promoter DNA (dsDNA)
DNA 1: CCTGGCGCCAGAGAGTCTGC
DNA 2: GCAGACTCTCTGGCGCCAGG
B2: Bambi enhancer DNA (dsDNA)
DNA 1: AGTGTCGTCTCGTTGGCGCCGGGTGC
DNA 2: GCACCCGGCGCCAACGAGACGACACT
B3: Smad7 promoter DNA (dsDNA)
DNA 1: CCAGCCAGCCAGCCGGCGCCAC
DNA 2: GTGGCGCCGGCTGGCTGGCTGG

Legend:
Smad5 MH1 [1] = target: T1, Smad5 MH1 (Mus musculus, UniProt P97454 1-143); assay: EMSA
Smad5 MH1 [2] = target: T1, Smad5 MH1; assay: EMSA; remark: listed apart in the source

T1 sequence (P97454 1-143): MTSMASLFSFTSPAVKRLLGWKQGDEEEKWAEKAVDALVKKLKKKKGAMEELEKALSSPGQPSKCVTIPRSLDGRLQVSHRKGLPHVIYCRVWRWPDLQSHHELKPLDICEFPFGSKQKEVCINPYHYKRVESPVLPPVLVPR

Binder	binding result (Smad5 MH1 [1])	binding result (Smad5 MH1 [2])
B1	binds	
B2		binds
B3		binds
